From US20040038293A1 (Novartis, published 2004)

Experiments:
[1] = biological target: T1, recombinant soluble human CD154 (extracellular portion of human CD154 fused to mouse Cκ), trimeric (human; mouse, UniProt P29965 47-261); experiment: cell-based or functional assay
T1 sequence (looked up): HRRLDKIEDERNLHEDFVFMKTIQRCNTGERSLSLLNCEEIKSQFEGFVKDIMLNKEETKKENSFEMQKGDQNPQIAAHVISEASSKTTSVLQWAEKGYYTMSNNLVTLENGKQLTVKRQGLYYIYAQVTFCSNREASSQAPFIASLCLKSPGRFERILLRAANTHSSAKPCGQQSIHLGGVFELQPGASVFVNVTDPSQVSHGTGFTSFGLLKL

[2] = biological target: T1, recombinant soluble human CD154 …; experiment: cell-free competitive binding assay: CD154-κ immobilised, biotinylated soluble human CD40, Eu-streptavidin fluorimetry
Procedure: The ability to inhibit the binding of CD154 to CD40 is tested in a cell-free competitive binding assay. Recombinant soluble human CD154 (i.e., the extracellular portion of human CD154 fused to mouse Cκ) is immobilized on microtiter plates and the plates incubated, in the presence or absence of a putative inhibitor, with biotinylated recombinant soluble human CD40. The fraction of CD40 bound to CD154 is fluorimetrically determined using Eu-labelled streptavidin as the detection reagent.

[3] = biological target: T1, recombinant soluble human CD154 …; experiment: SPR (BIAcore), ABI793 immobilised, CD154-κ 10 to 160 nM in solution, n = 3
Procedure: The association and dissociation rate constant for the binding of recombinant human CD154 to ABI793 is determined by BIAcore analysis. ABI793 is immobilized, and binding of soluble recombinant CD154 (CD154-κ) in a concentration range from 10 to 160 nM is measured by surface plasmon resonance. The chosen format represents a monovalent interaction. Data analysis is performed using the BIA evaluation software.

Inhibition of CD154/IL-4 driven B Cell Proliferation (3H-TdR uptake), IC50 [1]: 0.073 µg/mL
IC50 [2]: 0.075 µg/mL
Kd [3]: 23.1 nM
koff [3]: 0.000538 s⁻¹
kon [3]: 23400 M⁻¹ s⁻¹
B1: ABI793 antibody (human anti-human CD154 monoclonal antibody from hybridoma # 207.2) (antibody, V domains shown)
VH: QVQLVQSGAEVQKPGSSVKVSCKASGGTFSNFAFNWVRQVPGQGLEWMGRILPSLDIASYAQKFQDRVTITADKSTSTAYMELSSLRSEDTAMYYCAREVDGGGFDYWGQGTLVTVSS
VL: DIQMTQSPSSLSASVGDRVTITCRASQGISSWLAWYQQKPEKAPKSLIYAASSLQSGVPSRFSGSGSGTDFTLTISSLQPEDFATYYCQQYNSYPFTFGGGTKVEIK
notes: FTC-labelled in part of the flow cytometry experiments; also called Antibody of the Invention
